Experimental data from patent US20220162308A1 (Novartis, published 2022).

Tests used:
[1] = biological target: T1, Human CD48 on cells (human, UniProt P09326 27-220); assay: cell-based or functional assay
T1 sequence: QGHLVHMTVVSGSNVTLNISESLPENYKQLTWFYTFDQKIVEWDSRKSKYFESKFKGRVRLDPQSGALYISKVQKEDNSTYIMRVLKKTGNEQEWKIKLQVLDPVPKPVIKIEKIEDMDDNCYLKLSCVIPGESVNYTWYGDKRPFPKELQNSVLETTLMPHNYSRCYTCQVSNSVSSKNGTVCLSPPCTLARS

[2] = biological target: T2, Construct #2248 (human; mouse, UniProt P09326 27-220, limits assumed); assay: ELISA: 1:10 diluted HEK293T supernatant of the CD48-mouse IgG construct; antibody at 25, 250 and 500 ng/mL; detection with goat anti-mouse IgG (H+L) HRP; Mean OD450-570
T2 construct: also called hCD48EC:mouse-Ig with ENYKQ modified into GSSKQ
T2 chain: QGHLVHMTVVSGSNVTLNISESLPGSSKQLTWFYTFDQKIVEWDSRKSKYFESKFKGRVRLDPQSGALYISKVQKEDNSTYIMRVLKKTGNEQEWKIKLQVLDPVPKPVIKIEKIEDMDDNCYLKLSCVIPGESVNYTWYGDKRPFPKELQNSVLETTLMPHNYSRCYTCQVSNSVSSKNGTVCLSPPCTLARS
Method: (§1) Applying the 3D structure models of the CD48 protein, three exposed loops of the protein were selected and changed by site directed mutagenesis utilizing PCR. Antibody binding epitopes were determined by ELISA. […] The template construct, hCD48EC:mouse-Ig originates from the expression plasmid generated to express the human CD48-mouse IgG1 fusion protein for immunization amplified from the commercial vector “Trueclone, CD48 (untagged)-Human CD48 molecule” (Origene, NM_001778.2). Primer for the site directed mutagenesis were synthesized by Microsynth (Switzerland).

[3] = biological target: T3, Construct #2250 (human; mouse, UniProt P09326 27-220, limits assumed); assay: as above
T3 construct: also called hCD48EC:mouse-Ig with KKTGNE modified into KKDASG
T3 chain: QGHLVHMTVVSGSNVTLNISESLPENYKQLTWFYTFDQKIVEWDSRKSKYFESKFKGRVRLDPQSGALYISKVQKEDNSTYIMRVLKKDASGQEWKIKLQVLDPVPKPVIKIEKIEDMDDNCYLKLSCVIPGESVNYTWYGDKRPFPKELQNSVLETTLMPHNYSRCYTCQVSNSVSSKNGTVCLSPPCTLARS
Method: as §1

[4] = biological target: T4, Non-mutated CD48-mouse IgG fusion construct (human; mouse, UniProt P09326 27-220, limits assumed); assay: as above
T4 construct: Used as HEK293T culture supernatant in the ELISA; also called hCD48EC:mouse-Ig; human CD48-mouse IgG1 fusion protein
T4 sequence: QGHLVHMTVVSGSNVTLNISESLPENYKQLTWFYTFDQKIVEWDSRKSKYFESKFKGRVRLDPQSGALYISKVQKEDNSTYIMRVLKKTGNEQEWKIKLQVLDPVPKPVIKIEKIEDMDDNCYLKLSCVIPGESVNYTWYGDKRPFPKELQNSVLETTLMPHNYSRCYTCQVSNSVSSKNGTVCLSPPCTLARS
Method: as §1

[5] = biological target: T5, 2249 (Homo sapiens, UniProt P09326); assay: as above
T5 chain: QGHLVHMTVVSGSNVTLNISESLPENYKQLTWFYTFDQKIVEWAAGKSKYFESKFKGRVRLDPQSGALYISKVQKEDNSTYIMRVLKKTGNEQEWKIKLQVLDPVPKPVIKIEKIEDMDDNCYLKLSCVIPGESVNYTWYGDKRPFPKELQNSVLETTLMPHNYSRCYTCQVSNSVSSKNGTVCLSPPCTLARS
Method: as §1

- Span (Amax), KMS-21-BM, with anti-human Fc-VC-MMAE [1]: 92
- Span (Amax), KMS-27, with anti-human Fc-VC-MMAE [1]: 93.4
- Span (Amax), NCI-H929, with anti-human Fc-VC-MMAE [1]: 100
- binding result [2]: no binding (tested: 500 ng/mL)
- EC50 (read off the curve) [3]: ~0.02 µg/mL
- EC50 (read off the curve) [4]: ~0.02 µg/mL
- EC50 (read off the curve) [5]: ~0.03 µg/mL
B1: humanized CD48A (antibody, human IgG1, kappa)
heavy: not shown
light: EIVLTQSPDFQSVTPKEKVTITCRASQSIGSNIHWYQQKPDQSPKLLIKYTSESISGVPSRFSGSGSGTDFTLTINSLEAEDAATYYCQQSNSWPLTFGGGTKVEIKRTVAAPSVFIFPPSDEQLKSGTASVVCLLNNFYPREAKVQWKVDNALQSGNSQESVTEQDSKDSTYSLSSTLTLSKADYEKHKVYACEVTHQGLSSPVTKSFNRGEC
notes: also called humanized MEM102 antibody; anti-CD48A
- IC50 (nM), cell proliferation/survival (CellTiter-Glo), KMS-21-BM, with anti-human Fc-VC-MMAE [1]: 0.016 nM
- IC50 (nM), cell proliferation/survival (CellTiter-Glo), KMS-27, with anti-human Fc-VC-MMAE [1]: 0.001 nM
- IC50 (nM), cell proliferation/survival (CellTiter-Glo), NCI-H929, with anti-human Fc-VC-MMAE [1]: 0.007 nM
